# Values quoted from earlier work, collected in patent US20040120897A1, “Method for administering insulinotropic peptides” (priority 1998, published 2004).
# Conditions: calculated, background statement
row,Substance,absorption value after delivery through the lungs
1,glycosylated α1-antitrypsin: protein cited in the background for its pulmonary absorption value,48 h
2,parathyroid hormone (1-34): peptide hormone cited in the background for its pulmonary absorption value,fifteen
